# Results as given in patent publication US20180291362A1 (SEOUL NATIONAL UNIVERSITY R AND DB FOUNDATION, published 2018).
# B1: lysine decarboxylase LdcI mutant strain wherein phenylalanine at position 14 is substituted with cysteine, and lysine at position 44 is substituted with … (enzyme)
# chain: MNVIAILNHMGVYCKEEPIRELHRALERLNFQIVYPNDRDDLLCLIENNARLCGVIFDWDKYNLELCEEISKMNENLPLYAFANTYSTLDVSLNDLRLQISFFEYALGAAEDIANKIKQTTDEYINTILPPLTKALFKYVREGKYTFCTPGHMGGTAFQKSPVGSLFYDFFGPNTMKSDISISVSELGSLLDHSGPHKEAEQYIARVFNADRSYMVTNGTSTANKIVGMYSAPAGSTILIDRNCHKSLTHLMMMSDVTPIYFRPTRNAYGILGGIPQSEFQHATIAKRVKETPNATWPVHAVITNSTYDGLLYNTDFIKKTLDVKSIHFDSAWVPYTNFSPIYEGKCGMSGGRVEGKVIYETQSTHKLLAAFSQASMIHVKGDVNEETFNEAYMMHTTTSPHYGIVASTETAAAMMKGNAGKRLINGSIERAIKFRKEIKRLRTESDGWFFDVWQPDHIDTTECWPLRSDSTWHGFKNIDNEHMYLDPIKVTLLTPGMEKDGTMSDFGIPASIVAKYLDEHGIVVEKTGPYNLLFLFSIGIDKTKALSLLRALTDFKRAFDLNLRVKNMLPSLYREDPEFYENMRIQELAQNIHKLIVHHNLPDLMYRAFEVLPTMVMTPYAAFQKELHGMTEEVYLDEMVGRINANMILPYPPGVPLVMPGEMITEESRPVLEFLQMLCEIGAHYPGFETDIHGAYRQADGRYTVKVLKEESKK
# modifications: disulfide bond between the introduced cysteines (positions 14 and 44) of neighbouring subunits
# notes: Purified enzyme; also called F14C/K44C; F14C/K44C mutant strain
# Target: the molecule itself
# Test: non-reducing vs reducing SDS PAGE, subunit self-association (disulfide cross-link)
# Method: In order to observe the disulfide bonding of lysine decarboxylase mutant strain, the protein sizes when reducing power was applied and not applied to wild type lysine decarboxylase LdcI (SEQ ID NO: 15) and the mutant strain wherein phenylalanine at position 14 is substituted with cysteine, and lysine at position 44 is substituted with cysteine (F14C/K44C, SEQ ID NO: 6) were measured with SDS PAGE. Such a measurement can confirm whether a shared bond is formed between sulfur elements in a form —S—S— wherein two SH groups added to the mutant strain are producing in oxidation. In a reducing SDS PAGE, reducing power is applied to both of the wild type and the mutant strain to break all disulfides where bonding is possible, and then the sizes are observed, and in non-reducing SDS PAGE, it was observed whether disulfide bond is formed.
protein,measurement,value
B1,binding result,binds
